Experimental findings from patent US20090263370A1, “METHODS FOR TREATING TACHYKININ-MEDIATED DISEASES WITH CHOLINESTERASE” (priority 2006, published 2009) are described below.

Series [1] concerns Substance P (SP). Briefly: Hydrolysis of Substance P (SP) by cholinesterase, flight mass spectrometry. To be noted: for first restriction site: SP C-terminal. In kind it is biochemical. The procedure:
Hydrolysis of SP was performed by acetylcholinesterase and butyrylcholinesterase separately.
1) Butyrylcholinesterase, specific activity 200 U, 50 mg of dry powder was dissolved in 5 mL of aqueous solution of iron(III) (double distilled water, Fe^+3 content, 1 mg/L) and centrifuged at 10,000 r/min for 4 minutes;
2) Butyrylcholinesterase, specific activity 200 U, 50 mg of dry powder was dissolved in 5 mL of double distilled water and centrifuged at 10,000 r/min for 4 minutes;
3) Acetylcholinesterase, specific activity 300 U, 20 mg of dry powder was dissolved in 1 mL of double distilled water and centrifuged at 10,000 r/min for 4 minutes.
SP, with purity 98%, in an aqueous solution at a concentration 0.5 μg/mL.
3. Reaction 100 μL of the substrate and 100 μL of enzyme were mixed, and the initial reaction temperature was 22° C.
Flight mass spectrometry: 1 μL of matrix (CHCA) and 1 μL of the reactant were mixed, and the mixture was directly assayed by flight mass spectrometry.

The subject of series [2] is Kunming mice. The experiment in a line: Analgesic experiment on mice by acetic acid twisting method. In kind it is in vivo. To be noted: for Inhibition rate (%): compared with saline solution group; for Writhing number: within 15 minutes after 0.6% acetic acid i.p. The text has this: (§1) 1. Materials and Reagents
1) Reagents: acetic acid, manufactured by Guangdong Xinning Chemical Plant; butyrylcholinesterase (activity: 200 U per mL solution) prepared following the method of Example 2; Fenbid liniment (ibuprofen), produced by GlaxoSmithKline (China) Investment Co, Ltd., Product batch number: 04050471.
2) Animals: Kunming mice, 40, weight 20±2 g, of either sex.
Saline solution group (negative control group);
Experimental group 1, smeared with butyrylcholinesterase aqueous solution;
Experimental group 2, intraperitoneal injection with butyrylcholinesterase aqueous solution; and
Fenbid group (positive control group).
40 Kunming mice were randomly grouped with each group 10. The negative control group was administered 0.9% saline solution (0.1 mL/10 g) by intraperitoneal injection. An area of 1×1 cm of the hair of the mice of the experimental group 1 was cut in the back, and butyrylcholinesterase (enzyme activity: 200 U per mL solution) was smeared onto it. The experimental group 2 was administered 0.1 mL/10 g butyrylcholinesterase solution (enzyme activity: 200 U per mL solution) by intraperitoneal injection. An area of 1×1 cm of the hair of the mice of the positive control group was cut in the back, and Fenbid was smeared onto it. Each group of mice was fed in different cages. At 5 minutes after administration, following the method taught in Pharmacological Experimental Methodology (3rd Edition) (Xu Shuyun, et al., People's Health Publishing House, 2002, 1), each mouse was administered 0.6% acetic acid ([…]) by intraperitoneal injection, and the writhing number of mice within 15 minutes was recorded. The number was compared with that of saline solution group (0.9%) to calculate writhing inhibition rate in mice.

In series [3] the test system is Wister rats. The experiment in a line: Anti-inflammatory experiment with adjuvant arthritis rats. It counts as in vivo.
Text: as §1
1) Reagents: butyrylcholinesterase aqueous solution (activity: 300 U per mL solution) prepared following the method of Example 2; Fenbid liniment (ibuprofen), manufactured by GlaxoSmithKline (China) Investment Co, Ltd., Product batch number: 04050471.
2) Animals: Wister rats, 30, weight 200±2 g, of either sex, from Laboratory Animal Center, Sun Yat-sen University.
Wister rats were randomly grouped into 3 groups with each group of 10. Following the method taught in Pharmacological Experimental Methodology (The third edition) (Xu Shuyun, et al., People's Health Publishing House, 2002, 1), each rat was administered 0.1 mL of Freund's adjuvant (FCA) in the right hindlimb by intradermal injection. After 0.5 h, the experimental group and Fenbid group were separately administered butylcholineterase aqueous solution and Fenbid in the inflammatory site of the right hindlimb, one time per day for a week. At 2 h, 6 h, 12 h, 24 h, 48 h, 72 h and 7 d after administration, the swelling degree of the right hindlimb of rats was separately measured by a vernier caliper.

For series [4], the system named is patients with summer diarrhea. Briefly: Prevention and treatment of summer diarrhea. To be noted: 0.5 mL of 200 U aqueous solution in 3 mL cold water, rinsed in mouth and swallowed, repeated after two hours. It counts as in vivo. The procedure: To 0.5 mL of butyrylcholinesterase (enzyme activity 200 U) aqueous solution, 3 mL of cold water was added. A portion of the solution was placed into the mouth of a patient, and lightly rinsed for 5-10 minutes. Then, the solution was swallowed. Two hours later, the previous steps were repeated.

For series [5], the system named is patients with allergic rhinitis. The experiment in a line: Prevention and treatment of allergic rhinitis. It counts as in vivo. To be noted: 300 U glycerol solution nasal spray, 3-5 times per day for a week; a month later, in most patients. The text has this: Acetylcholinesterase (enzyme activity 300 U) glycerol solution was sprayed to the nose of a patient, 3-5 times per day, one spray each time. The course of treatment lasted a week.

Series [6] concerns patient who caught a cold at early stage. Briefly: Prevention and treatment of common cold. In kind it is in vivo. To be noted: 200 U glycerol solution nasal spray. The text has this:
Acetylcholinesterase (enzyme activity 200 U) glycerol solution was sprayed to the nose of a patient who caught a cold at early stage, 3-5 times per day, one spray each time. Within an hour, symptoms such as headache and fever disappeared. Three days later, other symptoms disappeared, and overall wellbeing of the patient recovered to normal.

For series [7], the system named is patients with swelling gingivitis and pain. The experiment in a line: Prevention and treatment of gingivitis. It counts as in vivo. To be noted: 300 U. The procedure:
Patients suffered from swelling gingivitis and pain. Sterile cotton swab was wetted by acetylcholinesterase (enzyme activity 300 U) and placed on the affected area for 10 min, one or two times per day.

The test system of series [8] is patients with wound caused by trauma, burn or scald. The experiment in a line: Prevention and treatment of trauma and inflammation. To be noted: enzyme activity 300 U, sprayed 1-3 times directly onto wound. It counts as in vivo. The text has this: Acetylcholinesterase (enzyme activity 300 U) was sprayed 1-3 times directly onto a wound. If necessary, gauze pretreated with acetylcholinesterase may also cover the wound. […] Pains disappeared. If the wound was not already inflamed, inflammation was not observed, the wound recovered naturally, and a week later dead skin started to fall off. If the wound was inflamed, the inflammation would not develop; three days later, the wound recovered naturally. The mentioned-above wound was a wound caused by trauma, burn or scald.

In series [9] the test system is patient with tinea pedis. The experiment in a line: Prevention and treatment of tinea pedis. It counts as in vivo. Here is the method:
To 2 L of warm water lower than 40° C. was added 2 mL of acetylcholinesterase aqueous solution (enzyme activity 300 U), and stirred slowly. The feet of a patient were immersed in the solution for 30 minutes, two times per day for three consecutive days.

Where [10] appears, read: intraperitoneal injection 0.1 mL/10 g, 200 U per mL.

Values joined by “and” are separate entries in the source; they are usually repeats but may differ in a detail not shown here. Identical values can stand only once.

B1: Butyrylcholinesterase (protein, UniProt P06276 29-602, looked up)
Cholinesterase: EDDIIIATKNGKVRGMNLTVFGGTVTAFLGIPYAQPPLGRLRFKKPQSLTKWSDIWNATKYANSCCQNIDQSFPGFHGSEMWNPNTDLSEDCLYLNVWIPAPKPKNATVLIWIYGGGFQTGTSSLHVYDGKFLARVERVIVVSMNYRVGALGFLALPGNPEAPGNMGLFDQQLALQWVQKNIAAFGGNPKSVTLFGESAGAASVSLHLLSPGSHSLFTRAILQSGSFNAPWAVTSLYEARNRTLNLAKLTGCSRENETEIIKCLRNKDPQEILLNEAFVVPYGTPLSVNFGPTVDGDFLTDMPDILLELGQFKKTQILVGVNKDEGTAFLVYGAPGFSKDNNSIITRKEFQEGLKIFFPGVSEFGKESILFHYTDWVDDQRPENYREALGDVVGDYNFICPALEFTKKFSEWGNNAFFYYFEHRSSKLPWPEWMGVMHGYEIEFVFGLPLERRDNYTKAEEILSRSIVKRWANFAKYGNPNETQNNSTSWPVFKSTEQKYLTLNTESTRIMTKLRAQQCRFWTSFFPKVLEMTGNIDEAEWEWKAGFHRWNNYMMDWKNQFNDYTSKKESCVGL
In the case of B1, the “capacity of hydrolyzing SP” value in [1] was “has the capacity of hydrolyzing SP”. Further, the “amount of product, with Fe^+3 (FIG. 3) compared with without Fe^+3 (FIG. 8)” value in [1] (60 minutes) is “much more products having a molecular weight of 1104”. Besides, in series [1], the first restriction site result was “between Leu^10 and Met^11”. Besides, the “molecular weight of products detected” value in [1] (in water without Fe^+3, FIGS. 6-9) is 1217 and 1104. Further, the “molecular weight of product detected” value in [1] (with Fe^+3 in water, at 25 minutes) was determined as 1217. Also, in series [1] (with Fe^+3 in water, at 60 minutes), the “molecular weight of new fragments detected” value is 1104 and 900. Moreover, the “writhing number compared with the saline solution group” value in [2] (either by intraperitoneal injection or by skin smearing, P<0.05) was “significantly decreased the writhing number”. Further, the “Inhibition rate (%)” value in series [2] (setting [10]) was determined as 26.6%; in series [2] (smeared onto the back, 200 U per mL) it was 24.0%. Also, the values for the Writhing number in series [2] (setting [10]) and in [2] (smeared onto 1×1 cm cut area of the back) were 27.2 ± 9.50*Δ and 29.9 ± 5.17, respectively. The “inhibition rate on writhing compared with Fenbid” value in series [2] (intraperitoneal injection, P<0.05) is given as “higher inhibition rate on writhing in mice than Fenbid”. Besides, the “Swelling degree of the right hind limb of rats” value amounted to 0.74 ± 0.04 in [3] (2 h after administration); 0.84 ± 0.04 in series [3] (6 h after administration); 0.87 ± 0.05 in series [3] (12 h after administration); 0.83 ± 0.05 in series [3] (24 h after administration); 0.74 ± 0.02 in series [3] (48 h after administration); 0.76 ± 0.05 in series [3] (72 h after administration). For the same molecule, the “Swelling degree of the right hind limb of rats” value in [3] (7 d after administration) is 0.67 ± 0.06. For the same molecule, the “swelling degree compared with the negative control group” value in series [3] (at 48 h, 72 h and 7 d after administration, P<0.05) is “significantly decrease the swelling degree”. Moreover, the “number of the patients with summer diarrhea” value in [4] is “decreased greatly”.

B2: Acetylcholinesterase (protein, UniProt P22303 32-614, looked up)
Acetylcholinesterase: EGREDAELLVTVRGGRLRGIRLKTPGGPVSAFLGIPFAEPPMGPRRFLPPEPKQPWSGVVDATTFQSVCYQYVDTLYPGFEGTEMWNPNRELSEDCLYLNVWTPYPRPTSPTPVLVWIYGGGFYSGASSLDVYDGRFLVQAERTVLVSMNYRVGAFGFLALPGSREAPGNVGLLDQRLALQWVQENVAAFGGDPTSVTLFGESAGAASVGMHLLSPPSRGLFHRAVLQSGAPNGPWATVGMGEARRRATQLAHLVGCPPGGTGGNDTELVACLRTRPAQVLVNHEWHVLPQESVFRFSFVPVVDGDFLSDTPEALINAGDFHGLQVLVGVVKDEGSYFLVYGAPGFSKDNESLISRAEFLAGVRVGVPQVSDLAAEAVVLHYTDWLHPEDPARLREALSDVVGDHNVVCPVAQLAGRLAAQGARVYAYVFEHRASTLSWPLWMGVPHGYEIEFIFGIPLDPSRNYTAEEKIFAQRLMRYWANFARTGDPNEPRDPKAPQWPPYTAGAQQYVSLDLRPLEVRRGLRAQACAFWNRFLPKLLSATDTLDEAERQWKAEFHRWSSYMVHWKNQFDHYSKQDRCSDL
Regarding B2, in series [5], the “symptoms such as nasal obstruction, sneezing, runny nose, nose itching” value was “disappeared, without relapse”. For the same molecule, in [6] (3-5 times per day, within an hour), the “symptoms such as headache and fever” value was “disappeared”. Besides, in [6] (three days later), the other symptoms entry is reported as “disappeared”. In series [1], the “capacity of hydrolyzing SP” value was “has the capacity of hydrolyzing SP”; the first restriction site result was “between Leu^10 and Met^11”. Further, in series [1] (in water, 0-30 minutes, FIGS. 10-15), the “hydrolysis of C-terminal Met^11 of SP” value is given as “hydrolyzed quickly”. Besides, the “SP fragment finally left” value in series [1] (in water, FIGS. 10-15) is reported as “only a 1-5 peptide fragment was left”. Besides, the “relapse and side effects” value in [7] (cotton swab on affected area) was “without relapse and side effects”. Also, the inflammatory swelling entry in series [7] (cotton swab on affected area 10 min, one or two times per day, two days later) is “disappeared”. Moreover, in series [8], the pains result is “disappeared”; the “wound and inflammation in patients” value is “reduced significantly”. In addition, the pain result in [9] (2 mL of 300 U solution in 2 L warm water, feet immersed 30 minutes, two times per day, three days) is “disappeared”. Besides, in [9] (one week later), the “ringworm spot, smell and other symptoms” value was “all gone”.
